Among the data in PMC11408855, “The structure of the SufS–SufE complex reveals interactions driving protected persulfide transfer in iron-sulfur cluster biogenesis” (The Journal of Biological Chemistry, 2024) are Kd values, retold here.

Numbering of substitutions follows the chain as printed. Numbers in names are those of the source.

Details in all cases: both partners purified
For test [1], the target named is T1, EcSufS, C-terminal his-tagged (wild type) (Escherichia coli, UniProt P77444 1-406, PLP (pyridoxal 5'-phosphate) cofactor).
T1 construct: EcSufS, cysteine desulfurase SufS of Escherichia coli, UniProt P77444; the gene was cloned; also called WT EcSufS; cysteine desulfurase SufS; source: E. coli BL21(DE3)Δsuf, pET44, autoinduction, purified (Ni2+ HisTrap HP); not shown: His tag, C-terminal, kept
T1 sequence: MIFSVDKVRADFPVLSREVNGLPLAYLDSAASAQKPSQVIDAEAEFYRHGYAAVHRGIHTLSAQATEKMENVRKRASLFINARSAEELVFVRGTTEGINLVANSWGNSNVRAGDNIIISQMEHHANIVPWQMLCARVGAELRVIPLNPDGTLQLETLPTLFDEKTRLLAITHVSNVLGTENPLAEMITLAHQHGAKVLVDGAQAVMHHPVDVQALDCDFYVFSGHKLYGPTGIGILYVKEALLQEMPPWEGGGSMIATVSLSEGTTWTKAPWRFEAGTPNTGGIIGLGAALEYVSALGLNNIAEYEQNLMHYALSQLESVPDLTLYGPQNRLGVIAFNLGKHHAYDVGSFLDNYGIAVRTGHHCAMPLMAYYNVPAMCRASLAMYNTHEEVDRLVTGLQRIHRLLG
The test is described as follows: fluorescence polarisation; 100 nM BODIPY-FL-labeled EcSufE titrated with EcSufS; 50 mM Mops pH 8.0, 150 mM NaCl, 0.1 mg/ml bovine serum albumin, 25 °C, 30 min; presence of 500 μM cysteine; apparent KD. (In general: Fluorescence polarisation rises when a labelled molecule tumbles more slowly, as on binding a larger partner.)

The target of test [2] is T2, Y345A EcSufS, C-terminal his-tagged (Escherichia coli, UniProt P77444 1-406, Y345A, PLP (pyridoxal 5'-phosphate) cofactor).
T2 construct: EcSufS of Escherichia coli, UniProt P77444, with Y345A; also called Y345A SufS; source: E. coli BL21(DE3)Δsuf, pET44, autoinduction, purified (Ni2+ HisTrap HP); not shown: His tag, C-terminal, kept
T2 sequence: T1 sequence with Y345A
The test is described as follows: fluorescence polarisation; 100 nM BODIPY-FL-labeled EcSufE titrated with EcSufS; 50 mM Mops pH 8.0, 150 mM NaCl, 0.1 mg/ml bovine serum albumin, 25 °C, 30 min; absence of cysteine; apparent KD.

Test [3] has as its target T3, H343A EcSufS, C-terminal his-tagged (Escherichia coli, UniProt P77444 1-406, H343A, PLP (pyridoxal 5'-phosphate) cofactor).
T3 construct: EcSufS of Escherichia coli, UniProt P77444, with H343A; also called H343A SufS; source: E. coli BL21(DE3)Δsuf, pET44, autoinduction, purified (Ni2+ HisTrap HP); not shown: His tag, C-terminal, kept
T3 sequence: T1 sequence with H343A
The test is described as above.

In test [4] the target is T4, Y354A EcSufS, C-terminal his-tagged (Escherichia coli, UniProt P77444 1-406, Y354A, PLP (pyridoxal 5'-phosphate) cofactor).
T4 construct: EcSufS of Escherichia coli, UniProt P77444, with Y354A; also called Y354A SufS; source: E. coli BL21(DE3)Δsuf, pET44, autoinduction, purified (Ni2+ HisTrap HP); not shown: His tag, C-terminal, kept
T4 sequence: T1 sequence with Y354A
The test is described as above.

Test [5] has as its target T1, EcSufS, C-terminal his-tagged (wild …). The description is as above.

B1: BODIPY-FL-labeled C51A/E107C EcSufE (natural protein, Escherichia coli)
chain: MALLPDKEKLLRNFLRCANWEEKYLYIIELGQRLPELRDEDRSPQNSIQGAQSQVWIVMRQNAQGIIELQGDSDAAIVKGLIAVVFILYDQMTPQDIVNFDVRPWFCKMALTQHLTPSRSQGLEAMIRAIRAKAAALS
modifications: BODIPY-FL maleimide label (labeling efficiency 60 to 80%)
notes: EcSufE, transpersulfurase SufE of Escherichia coli, UniProt P76194, with C51A and E107C; also called "WT" EcSufE (double mutant background); C51A/E107C EcSufE control
Turning to B1, the Kd in test [1] is 600 nM; in test [2], more than 20 µM; in test [3], more than 20 µM; in test [4], more than 20 µM; in test [5] it was 5.2 µM.
